Measurements: patent US20090053225A1 (QUARK PHARMACEUTICALS, published 2009)

B1: scFv TS-59 (anti-CD59 clone) (scFv)
scFv: DIVLTQSPDSLAVSLGERATINCKSSQSVLYSSNNKNYLAWYQQKPGQPPKLLIYWASTRESGVPDRFSGSGSGTDFTPAISSLQAEDVAVYYCQQYYSTPQLTFGGGTKVDIKSGGSTITSYNVYYTKLSSSGTQVQLQQSGGGVVQPGRSLGLSCAASGFTFSSYGMNWVRQAPGKGLEWVSYISSSSSTIYYADSVKGRFTISRDNSKNTLYLQMNSLRAEDTAVYYCARGPGMDVWGQGTTVTVS
notes: also called Clone anti CD 59; anti-CD59 scFv
B2: scFv TS-55 (anti-CD55 clone) (scFv)
scFv: SSELTQEPAVSVALGQTVSITCQGDSLRSYYASWYQQKPGQAPIPVIYGKNNRPSGIPDRFSGSSSGNTASLTITGAQAEDEADYYCSSRDNRGTHRWVFGGGTKLTVLSGGSTITSYNVYYTKLSSSGTQVNLRESGGGLVQPGRSLRLSCAASGFTFDDYAMHWVRQAPGKGLEWVSGISWNSGSIGYADSVKGRFTISRDNAKNSLYLQMNSLRAEDTALYYCAKDRSDRGRLLDYWGLGTLVTVS
notes: also called Clone anti CD 55; anti-CD55 scFv

Assays:
[1] = biological target: T1, CD55 purified from human erythrocytes (human, UniProt P08174 35-353); assay: ELISA with phage and soluble scFv on coated purified antigen
T1 construct: mature; Native protein purified from red cells; coated on plates for ELISA, or incubated with antibody-sensitised sheep erythrocytes (EA-CD55) for the hemolytic assay; also called decay-accelerating factor; DAF
T1 sequence (looked up): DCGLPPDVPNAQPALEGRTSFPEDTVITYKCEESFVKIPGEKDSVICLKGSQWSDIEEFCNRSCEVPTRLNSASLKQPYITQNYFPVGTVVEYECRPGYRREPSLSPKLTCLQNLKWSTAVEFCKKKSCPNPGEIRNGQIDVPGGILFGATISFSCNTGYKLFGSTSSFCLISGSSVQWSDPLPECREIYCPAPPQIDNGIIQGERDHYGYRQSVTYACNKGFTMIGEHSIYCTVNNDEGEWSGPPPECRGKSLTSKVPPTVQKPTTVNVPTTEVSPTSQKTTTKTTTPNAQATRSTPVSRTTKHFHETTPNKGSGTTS
Method: (§1) Microtiter plates were coated with 100 μl of the various CRPs (10 μg/ml) followed by 100 μl of phage suspension in MPBS. Anti-M13 peroxidase conjugated mAb was used as a secondary antibody. Data represent mean values±SD of three different experiments.
(§2) The specificity of the selected clones was assessed by ELISA using both phage and soluble scFv (FIG. 1).

[2] = biological target: T2, CD59 purified from human erythrocytes (human, UniProt P13987 26-102); assay: as above
T2 construct: mature; Native protein purified from red cells; coated on plates for ELISA, or incubated with guinea pig erythrocytes (GPE-CD59) for the reactive lysis test
T2 sequence (looked up): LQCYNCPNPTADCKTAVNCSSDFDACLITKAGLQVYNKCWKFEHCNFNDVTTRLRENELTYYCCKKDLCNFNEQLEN
Method: as §1, §2

Row | Binder | binding result [1] | binding result [2]
1 | B1 | no binding | 
2 | B2 |  | no binding
